According to the nanobody polyreactivity screen of Harvey et al. (2022):

test: yeast display, Sf9 membrane polyspecificity reagent, FACS + sequencing; frameworks hold sequencing errors
Outline: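 Using colony PCR, genes from sorted yeast display clones were amplified, then sequenced on MiSeq at 2 × 250 and filtered by CDR length. The clones had been stained with 10% biotinylated, detergent-solubilized Sf9 membrane reagent for 1 hour at 4 °C and sorted by FACS into low and high (top ~1%) gates on anti-HA and streptavidin fluorescence. Polyreactivity labels come from the gate of origin.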

| Sequence | polyreactivity (PSR sort gate) |
| --- | --- |
| QVQLVESGGGLVQAGGSLRLSCAASGSIFPSNAMGWYRQAPGKERELVAGITRGGSTNYADSVKGRFTISRDNAKNTVYLQMNSLKPEDTAVYYCAADSGFDTAPYDYWGQGTQVTVSS | low polyreactivity |
| QVQLVESGGGLVQAGGSLRLSCAASGSIFPSNVMGSYRQAPGKERELVAAISNTGSTNYADSVKGRFTISRDNAKNTVYLQMNSLKPEDTAVYYCNADASYGFWSLLDYDYWGQGTQVTVSS | low polyreactivity |
| QVQLVESGGGLVQAGGSLRLSCAASGSIFPSYAMGWYRQAPGKERELVATISGSGTRTYYADSVKGRFTISRDNAKNTVYVQMNSLKPEDTAVYDCARLPPGDMDYWGQGTQVTVSS | low polyreactivity |
| QVQLVESGGGLVQAGGSLRLSCAASGSIFPSYAMGWYRQAPGQERELVATIGRGGTTNYADSVKGRFTISRDNAKNTVYLQMNSLKPEDTAVYYCNAERIWRYKYGYDYWGQGTQVNVSS | high polyreactivity |
| QVQLVESGGGLVQAGGSLRLSCAASGSIFPTYAMGWYRQAPGKERELVAAIRSGSNTYYADSVKGRFTISRDNAKNTVYLQMNSLKPEDTAVYYCNVGPQRKYPGRRTVPFGYWGQGTQVTVSS | low polyreactivity |
| QVQLVESGGGLVQAGGSLRLSCAASGSIFPVYAMGWYRQAHGKVREFVASIRWRGGSTSYADSVKGRFTISRDNAKNTVYLQMNSLKPEETAVYYCNAVYYSWSQSARFDYWGQGTQVTVSS | low polyreactivity |
| QVQLVESGGGLVQAGGSLRLSCAASGSIFPVYAMGWYRQAPGKDRELVAAISFSTGSTYYADSVKGRFTISRDNAKNTVYLQMNSLKPEDTAVFYCAKYDYTDYEYWGQGTQVTVSS | high polyreactivity |
| QVQLVESGGGLVQAGGSLRLSCAASGSIFPVYAMGWYRQAPGKERELVAAISSRGGTTYYADSVKGRFTISRDNAKNTVYLQMNSLKPEDTAVYYCAATRSGKYYGTRRKYGYWGQGTQVTVSS | high polyreactivity |
| QVQLVESGGGLVQAGGSLRLSCAASGSIFPVYAMGWYRQAPGKERELVASISTGGSTYYADSVKGRFTISRDNAKNTVYLQMNSLKPEDTAVYYCAATGWAYGYGYGYWGQGTQVTVSS | low polyreactivity |
| QVQLVESGGGLVQAGGSLRLSCAASGSIFPWNTMGWYRQAPGKERELVARISTSGASTYYADSVKGRFTISRDNAKYTVYLQMNSLKQEDTAVYFCAKVRHYGGRSWWYYYWGQGTQVTVSS | high polyreactivity |
| QVQLVESGGGLVQAGGSLRLSCAASGSIFPWYAMGWYRQAPGKERELVAAITISGGSTHYADTVKGRFTISRDNAKYTVYLQMNSLKPEDTAVYYCATPRYPSYDYWGQGTQVTVSS | low polyreactivity |
| QVQLVESGGGLVQAGGSLRLSCAASGSIFPYAMGWYRQSPGKERELVAAITRSGASTYYADSVKGRFTISRDNAKNTVYLQMNSLKPEDTAVYYCAAYALRGVRYPYRVDFYYWGQGTQVTVSS | high polyreactivity |
| QVQLVESGGGLVQAGGSLRLSCAASGSIFPYAMGWYRQSPGKQRQLVAVISWSGASTYYADSVKGRFTISRDNAKNTVDLQMNSLKPEDTAVYYCAVYRYYKLVHLYGYDYWGQGTQVTVSS | high polyreactivity |
| QVQLVESGGGLVQAGGSLRLSCAASGSIFPYNAMGWYRQAPGKEREFVAAITYSGGSTYYADSVKGRFTISRDNAKNTVYLQMNSLKPEDTAVYYCAAGYSSRGSRDGYWGQGTQVTVSS | low polyreactivity |
| QVQLVESGGGLVQAGGSLRLSCAASGSIFPYNVMGWYRQAPGKERELVAAISTRGGRTYYADSVKGRFTISRDNAKNTVYLQMNSLKPEDTAVYYCNTVVLRYLYNYWGQGTQVTVSS | high polyreactivity |
| QVQLVESGGGLVQAGGSLRLSCAASGSIFQDYAMGWSRQAPGKERELVAVITRGGSKYYADSVKGRFTISRDNAKNTVYLQMNSLKPEDTAVYYCNTRRGRGGKYDYWGHGTQVTVSS | low polyreactivity |

| Sequence | polyreactivity (PSR sort gate) |
| --- | --- |
| QVQLVESGGGLVQAGGSLRLSCAASGSIFQGNAMGWYRQAPGKERELVAAITYSGGSTYYADSVKGRFTISRDNAKNTVYLQMHSLKREDTAVYYCAAFFPSDLVDGYNYWGQGTQVTVSS | low polyreactivity |
| QVQLVESGGGLVQAGGSLRLSCAASGSIFQGNVMGWSRQAPGKERELVAAISSGGRTYYADSVKGRFTISRDNAKNTVYLQMNSLKPEDTAVYYCAASWLTSYAYIMYYWGQGTQVTVSS | high polyreactivity |
| QVQLVESGGGLVQAGGSLRLSCAASGSIFQIYAMGWYRQAPGKESELVATINRGDNTYYADSVKGRFTISRDNAKNTVYLQMHSLTPEDSAVYYCNVDRQVITGRYIGDYWGQGTLVTVSS | low polyreactivity |
| QVQLVESGGGLVQAGGSLRLSCAASGSIFQPYAMGWYRQAPGKERELVAAISIGDSTNYADSVKGRFTISRDNAKNTVYLQMNSLKPADTAVYYCNTTGEYYDYWGQATQVTVSS | low polyreactivity |
| QVQLVESGGGLVQAGGSLRLSCAASGSIFQQYAMGWYRQAPGKERELVAAISWGDGSTYYADSVKGRFTISRDNAKNTVYLQMNSLKPEDTAVYYCNAYASAPLWSLEDDYWGQGTQVTVSS | low polyreactivity |
| QVQLVESGGGLVQAGGSLRLSCAASGSIFQQYAMGWYRQAPGKERELVAAISYSGGTTYYADSVKGRFTISRDNAKNTVYLQMNSLKPEDTAVYYCAAYYPSGSYDYYWGQGTQVTVSS | low polyreactivity |
| QVQLVESGGGLVQAGGSLRLSCAASGSIFQRNAMGWYRQAPGKERELVAAISRSGGRTYYADSVKGRFTISRDNAKNTVYLQMNSLKPEDTAVYYCAADSPYIQNRFEYWGQGTQVTVSS | high polyreactivity |
| QVQLVESGGGLVQAGGSLRLSCAASGSIFQRYAMGWYRQAPGKEREFVAAISGRGGSTYYADSVKGRFTISRDNAKNTVYLQMNSLKPEDTAVYYCADDSSRFYGRPRYYYWGQGTQVTVSS | high polyreactivity |
| QVQLVESGGGLVQAGGSLRLSCAASGSIFQRYAMGWYRQAPGKERELVAGINWSGGRTYYADSVKGRFTISRDNAKNTVYLQMNSLKPEDTAVYYCAKPVERYTYSLYQQYDYWGQGTQVTVSS | high polyreactivity |
| QVQLVESGGGLVQAGGSLRLSCAASGSIFQSNAMGWYRQAPGKEREFVAAITASGGRTYYADSVKGRFTISRDNAKNTDYLLMNSLKPEDTAVYFCAARGRYYWGGRSYDYWGHGTQVTVSS | high polyreactivity |
| QVQLVESGGGLVQAGGSLRLSCAASGSIFQSNAMGWYRQAPGKERELFAAISWNTGSTYADSVKGRFTISRDNAKNTVYLQMNSLKPEDTAVYYCAADRSHAYYRKNRVDYWGQGTQVTVSS | low polyreactivity |
| QVQLVESGGGLVQAGGSLRLSCAASGSIFQTYAMGWYRQAPGKERELVAAIDGGDTTNYADSVKGRFTISRDNAKNTVYLQMNSLKPEDTAVYYCNADWGQVTQVTVSS | low polyreactivity |
| QVQLVESGGGLVQAGGSLRLSCAASGSIFQWNAMGWYRQAPGKERELVAAISTRGGRTYYADSVKGRFTISRDNAKNTDYLQMNSLKPEDTAVYYCAKQYGSYGRYYKYYYWGQGTQVTVSS | high polyreactivity |
| QVQLVESGGGLVQAGGSLRLSCAASGSIFQYYAMGWYRQAPGKERELVAAISSGGRTNYADSVKGRFTISRDNAKNTDYLQMNSLKPEDTAVYYCAAARYYYQVYRWEYDYWGQGTQVTVSS | high polyreactivity |
| QVQLVESGGGLVQAGGSLRLSCAASGSIFRANTMGWYRQAPGKERELVAVISSGGRTYYADSVKGRFTISRDNAKNTVYLQMNSLKPEDTAVYYCAAKRGYGYGYWGQGTQVTVSS | high polyreactivity |
| QVQLVESGGGLVQAGGSLRLSCAASGSIFRAYAMGWYRQAHGKERELVAAITGNGARTYYADSVKGRFTISRDNAKNTVYLQMNSLKPEDTAVYYCAKRGNRQHRWWYDYWGQGTQVTVSS | low polyreactivity |
